The values that follow come from publication PMC7949046, “Human genetic variants disrupt RGS14 nuclear shuttling and regulation of LTP in hippocampal neurons” (The Journal of Biological Chemistry, 2020).

The target in this assay is T1, purified XPO1-GST (GST-CRM1, Exportin 1) (human, UniProt O14980 1-1071).
T1 construct: Results and legend name the protein of the pull-down XPO1-GST / GST-XPO1, but the methods say that CRM1/XPO1 was cleaved from the beads with TEV protease; also called GST-XPO1; CRM1/XPO1; source: E. coli BL21, purified (glutathione Sepharose 4B)
T1 sequence (O14980 whole entry): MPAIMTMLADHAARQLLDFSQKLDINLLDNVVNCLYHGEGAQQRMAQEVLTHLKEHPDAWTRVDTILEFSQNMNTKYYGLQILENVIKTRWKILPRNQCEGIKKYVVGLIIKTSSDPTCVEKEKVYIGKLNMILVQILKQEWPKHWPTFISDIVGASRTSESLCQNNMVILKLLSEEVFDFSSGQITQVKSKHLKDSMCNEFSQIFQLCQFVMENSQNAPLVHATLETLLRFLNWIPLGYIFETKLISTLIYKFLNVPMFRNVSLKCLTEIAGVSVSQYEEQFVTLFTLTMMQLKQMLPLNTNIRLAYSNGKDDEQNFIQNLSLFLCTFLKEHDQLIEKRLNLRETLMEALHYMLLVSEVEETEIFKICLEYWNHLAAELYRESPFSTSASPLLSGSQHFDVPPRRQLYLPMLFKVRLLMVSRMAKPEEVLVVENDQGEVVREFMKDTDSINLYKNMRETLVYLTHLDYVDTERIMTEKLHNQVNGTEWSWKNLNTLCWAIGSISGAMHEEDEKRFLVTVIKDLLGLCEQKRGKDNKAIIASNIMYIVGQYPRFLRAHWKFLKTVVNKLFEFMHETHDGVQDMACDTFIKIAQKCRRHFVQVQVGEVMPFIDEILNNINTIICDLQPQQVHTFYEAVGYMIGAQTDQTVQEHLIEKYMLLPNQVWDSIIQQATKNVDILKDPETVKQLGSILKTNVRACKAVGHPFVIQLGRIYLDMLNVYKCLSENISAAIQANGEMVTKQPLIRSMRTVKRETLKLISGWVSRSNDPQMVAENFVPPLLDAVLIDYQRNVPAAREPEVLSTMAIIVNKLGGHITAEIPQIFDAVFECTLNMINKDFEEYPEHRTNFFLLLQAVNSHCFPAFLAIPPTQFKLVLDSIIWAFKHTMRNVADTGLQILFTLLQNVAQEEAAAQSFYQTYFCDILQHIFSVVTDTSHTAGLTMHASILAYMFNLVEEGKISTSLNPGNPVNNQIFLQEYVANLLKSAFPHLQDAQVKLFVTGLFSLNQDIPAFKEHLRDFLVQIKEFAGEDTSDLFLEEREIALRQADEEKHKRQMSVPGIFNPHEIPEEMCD
The assay is described as follows: pull-down; purified RGS14 mixed 2 h with purified XPO1-GST and His-Ran Q69L-GTP; His-Ran captured on Ni-NTA; Coomassie and immunoblot. As to conditions: both partners purified.

B1: recombinant RGS14 WT, purified from E. coli (natural protein, rat, UniProt O08773 1-544, looked up)
chain: MPGKPKHLGVPNGRMVLAVSDGELTSTSGSQAQGEGRGSSLSIHSLPSGPSSPFSTDEQPVASWAQSFERLLQDPRGLAYFTEFLKKEFSAENVTFWQACERFQQIPASDTKQLAQEAHNIYHEFLSSQALSPVNIDRQAWLSEEVLAQPRPDMFRAQQLQIFNLMKFDSYARFVKSPLYQECLLAEAEGRPLREPGSSHLGSPDTARKKPKLKPGKSLPLGVEELGQLPLAEGRPLRKSFRREMPGGAVNSALRRESQGSLNSSASLDLGFLAFVSSKSESHRKSLGSGEGESESRPGKYCCVYLPDGTASLALARPGLTIRDMLAGICEKRGLSLPDIKVYLVGKEQKALVLDQDCTVLADQEVRLENRITFQLELVGLERVVRISAKPTKRLQEALQPILAKHGLSLDQVVLHRPGEKQLVDLENLVSSVASQTLVLDTLPDAKTREASSIPPCRSQGCLPRTQTKDSHLPPLSSSLSVEDASGSTGKRQTCDIEGLVELLNRVQSSGAHDQRGLLRKEDLVLPEFLQLPSQRPGSQEAPP
notes: RGS14, rat; expressed as MBP-TEV-RGS14 (the constructs paragraph names pLic-GST); The methods call the fusion MBP-TEV-RGS14 but purify it on a glutathione column and name the vector pLic-GST; the carrier may have been GST; also called WT RGS14; not shown: MBP, N-terminal, cleaved
For B1, the binding result is “binds”.
